Target: acetylated BSA (AcBSA) (bovine (from the name BSA)) (UniProt P02769)
Test: SPR; AcBSA immobilized (900 RU, CM5, amine coupling; BSA as reference surface), serially diluted SREC-II(44-442) or SR-F1(20-421) injected; TBS-Ca-P; 20 µL/min; 25 °C; global fit, 1:1 Langmuir model; apparent KD

B1: SR‐F1(20‐421), SR‐F1 ectodomain (domain or fragment)
chain: SELDPKGQHVCVASSPSAELQCCAGWRQKDQECTIPICEGPDACQKDEVCVKPGLCRCKPGFFGAHCSSRCPGQYWGPDCRESCPCHPHGQCEPATGACQCQADRWGARCEFPCACGPHGRCDPATGVCHCEPGWWSSTCRRPCQCNTAAARCEQATGACVCKPGWWGRRCSFRCNCHGSPCEQDSGRCACRPGWWGPECQQQCECVRGRCSAASGECTCPPGFRGARCELPCPAGSHGVQCAHSCGRCKHNEPCSPDTGSCESCEPGWNGTQCQQPCLPGTFGESCEQQCPHCRHGEACEPDTGHCQRCDPGWLGPRCEDPCPTGTFGEDCGSTCPTCVQGSCDTVTGDCVCSAGYWGPSCNASCPAGFHGNNCSVPCECPEGLCHPVSGSCQPGSGSRDT
B1 showed a Kd of 790 nM, a koff of 0.0015 s⁻¹ and a kon of 2000 M⁻¹ s⁻¹.

Reference: paper PMC8487046
